Kd and koff data for two molecules are collected here from article PMC8420576 (2021).

By Kd is commonly meant the free concentration of one partner at which half of the binding sites on the other are occupied at equilibrium, for simple one-to-one binding. One may read the koff as the rate constant with which the complex falls apart. Lower therefore signals a long-lived complex.

Test in all cases: BLI
On the technique in general: In BLI a coated tip is dipped into the sample, and binding shifts an interference pattern.

Assay [1] concerns the target T1, SARS-CoV-2 Spike RBD (residues 334–527), C-terminal Avi-His6 tag, biotinylated (SARS-CoV-2, UniProt P0DTC2 334-527, biotin on the Avi-tag).
Assay [2] concerns the target T1, SARS-CoV-2 Spike RBD (residues …). The source holds these as a separate data set.
Assay [3] concerns the target T2, SARS-CoV-2 RBD wt (GenScript Z03479) (SARS-CoV-2, UniProt P0DTC2 319-541).
The target in assay [4] is T2, SARS-CoV-2 RBD wt (GenScript Z03479). The source holds these as a separate data set.

B1: VHH antibody Re9F06 (VHH)
VHH: QVQLVESGGGLVQAGGSLRLSCAASGRTFSNDALGWFRQAPRKEREFVAAINWNSGTYYADSVKGRFTISRDNAKNTVYLQMNSLKPEDTAVYSCAAASDYGLPREDFLYDYWGQGTQVTVSS
On to B1, for which the Kd in assay [1] amounted to 270 nM. For the same molecule, the koff in assay [2] was 0.00045 s⁻¹.

B2: VHH antibody Re5D06, labeled with two PEG11-biotins (VHH)
VHH: QVQLVESGGGLVQPGGSLRLSCAASGITLDYYAIGWFRQAPGKEREGVSRIRSSDGSTNYADSVKGRFTMSRDNAKNTVYLQMNSLKPEDTAVYYCAYGPLTKYGSSWYWPYEYDYWGQGTQVTVSS
In assay [3], B2 came in with a Kd of under 0.01 nM. Further, the koff in assay [4] turned out to be 1.6e-06 s⁻¹.
